Test results taken from the supplement of paper PMC7125110.
± gives the standard error. For some of these results: This sample holds only a part of the variants without activity.

B1: glmS ribozyme (parent)
chain: AUAAAAGCGCCAGAACUACAGAAAUGUAGUUGACGAGGAGGAGGUUUAUCGAAUUUUCGGCGGAUGCCUCCAAA

Experiments:
Conditions in all cases: with glucosamine-6-phosphate
[1] = variants of: B1; assay: kcat; higher = faster cleavage; RNA array
Procedure, shortened: (§1)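 Sequenced MiSeq chips were the platform: E. coli RNA polymerase transcribed barcoded ribozyme variants on them in situ, and a hybridised Cy3 probe tracked these at 37 °C. After glucosamine-6-phosphate (40 μM to 10 mM) in HEPES/KCl/Mg(OAc)2 buffer was flowed in, tiles were imaged over ~14 h. Signals normalised to baseline and to non-cleaving reference variants were reduced to per-tile medians and fit to one- or two-exponential decays to obtain kobs. kcat and KM were derived through weighted Michaelis–Menten fits across concentrations.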

[2] = variants of: B1; assay: KM; higher = weaker cofactor use; RNA array
Procedure, shortened: as §1

[3] = variants of: B1; assay: self-cleavage kobs at 40 uM GlcN6P; higher = faster cleavage; RNA array
Procedure, shortened: as §1

[4] = variants of: B1; assay: self-cleavage kobs at 160 uM GlcN6P; higher = faster cleavage; RNA array
Procedure, shortened: as §1

[5] = variants of: B1; assay: self-cleavage kobs at 640 uM GlcN6P; higher = faster cleavage; RNA array
Procedure, shortened: as §1

[6] = variants of: B1; assay: self-cleavage kobs at 2500 uM GlcN6P; higher = faster cleavage; RNA array
Procedure, shortened: as §1

[7] = variants of: B1; assay: self-cleavage kobs at 10000 uM GlcN6P; higher = faster cleavage; RNA array
Procedure, shortened: as §1

Variant | kcat [1] [s⁻¹] | KM [2] [µM] | self-cleavage kobs at 40 uM GlcN6P [3] [s⁻¹] | self-cleavage kobs at 160 uM GlcN6P [4] [s⁻¹] | self-cleavage kobs at 640 uM GlcN6P [5] [s⁻¹] | self-cleavage kobs at 2500 uM GlcN6P [6] [s⁻¹] | self-cleavage kobs at 10000 uM GlcN6P [7] [s⁻¹]
A15U U31G | 0.00129 ± 0.00024 | 2960 ± 980 | 1.82e-05 ± 8.3e-06 | 0.000104 ± 2.2e-05 | 0.000193 ± 3.7e-05 | 0.000572 ± 9.4e-05 | 0.00102 ± 0.00012
C16G G37A | 0.000832 ± 0.00041 | – | – | – | 3.76e-05 ± 1.2e-05 | 0.000292 ± 6.6e-05 | 0.000396 ± 4.9e-05
A15G U54G | 0.0486 ± 0.02 | 2200 ± 1000 | 0.000945 ± 8.8e-05 | 0.00385 ± 0.00091 | 0.00802 ± 0.0015 | 0.0243 ± 0.0097 | 0.0509 ± 0.011
C16A G37A | 7.68e-05 ± 2.6e-06 | 999 ± 160 | – | – | – | 5.79e-05 ± 1.2e-05 | 6.89e-05 ± 9.4e-06
C16A A36C C71A | < 1e-05 | – | – | – | – | – | < 1e-05
C16A G40U | 9.3e-05 ± 2.3e-05 | – | – | – | 4.49e-05 ± 1.2e-05 | 0.000122 ± 1.6e-05 | 7.36e-05 ± 1.2e-05
C16G A39U | 0.00424 ± 0.00089 | 3090 ± 880 | 6.4e-05 ± 7.3e-06 | 0.000164 ± 2.2e-05 | 0.000895 ± 0.00011 | 0.00198 ± 0.00025 | 0.00316 ± 0.00031
A15G G37A | 0.00317 ± 0.0014 | – | 8.19e-05 ± 9.7e-06 | 0.000154 ± 2.7e-05 | 0.000515 ± 7.3e-05 | 0.00123 ± 0.00023 | 0.00292 ± 0.00037
A15G U49A | 1.35e-05 ± 1.2e-06 | 1230 ± 550 | – | < 1e-05 | – | – | –
A15U U54C | 0.00568 ± 0.0015 | 1560 ± 660 | 0.000186 ± 2.3e-05 | 0.000292 ± 0.0001 | 0.00189 ± 0.0003 | 0.00297 ± 0.00042 | 0.00553 ± 0.00066
A15U U54G | 0.00446 ± 0.00053 | 1730 ± 330 | 8.2e-05 ± 2.2e-05 | 0.000411 ± 6.8e-05 | 0.00189 ± 0.00075 | 0.00279 ± 0.00048 | 0.00368 ± 0.0005
A15U G41U | 0.000143 ± 2.5e-05 | – | – | 4.82e-05 ± 1.4e-05 | 0.000255 ± 5.3e-05 | 0.000115 ± 1.5e-05 | 0.000149 ± 1.7e-05
C16U A42C | 1.1e-05 ± 6.5e-07 | – | – | – | – | – | –
A15U G32U C67U | 0.000433 ± 0.00015 | – | – | – | 3.29e-05 ± 1.4e-05 | 6.84e-05 ± 1.9e-05 | 0.000204 ± 3.8e-05
C16U G32C | 0.000168 ± 3e-05 | 3960 ± 1900 | – | – | – | 7.33e-05 ± 1.4e-05 | 0.000119 ± 1.2e-05
C16U G32U | 0.0024 ± 0.00062 | 8100 ± 2900 | – | 4.18e-05 ± 1e-05 | 0.000214 ± 3.2e-05 | 0.000519 ± 5.8e-05 | 0.00137 ± 0.00015
A15G U31A | 0.0107 ± 0.0009 | 2220 ± 260 | 0.000199 ± 4.4e-05 | 0.000722 ± 0.00015 | 0.00236 ± 0.00063 | 0.00493 ± 0.0014 | 0.00926 ± 0.0017
A15G U31G | 0.00736 ± 0.0015 | 4370 ± 1200 | 7.87e-05 ± 9.4e-06 | 0.000202 ± 3.2e-05 | 0.0011 ± 0.00015 | 0.00262 ± 0.00033 | 0.00513 ± 0.00051
C16U C61G | < 1e-05 | – | – | – | – | – | –
A15U G63A | < 1e-05 | – | – | – | – | – | < 1e-05
C16U C68A | 3.77e-05 ± 5.5e-06 | – | – | – | 4.99e-05 ± 1.5e-05 | 2.73e-05 ± 1.3e-05 | 3.74e-05 ± 7.6e-06
C16U C68U | 0.0026 ± 0.0006 | 1440 ± 460 | 8.07e-05 ± 5.9e-06 | 0.000263 ± 2.9e-05 | 0.000649 ± 5.6e-05 | 0.00247 ± 0.00034 | 0.00235 ± 0.00021
C16A U30A | 0.00139 ± 0.00047 | – | 3.95e-05 ± 8.3e-06 | 0.000164 ± 3e-05 | 0.000316 ± 5.7e-05 | 0.00154 ± 0.00022 | 0.00109 ± 0.00017
C16A C58G | 3.2e-05 ± 7.1e-06 | – | – | – | – | 4.47e-05 ± 1.2e-05 | 2.59e-05 ± 8.5e-06
A15G U55G | 0.0139 ± 0.0046 | 683 ± 310 | 0.000914 ± 0.00013 | 0.00183 ± 0.00047 | 0.00997 ± 0.0026 | 0.0187 ± 0.0059 | 0.0118 ± 0.0027
A15U U47G | 0.000703 ± 0.00012 | 1160 ± 360 | 5.1e-05 ± 1.1e-05 | 8.04e-05 ± 1.3e-05 | 0.000238 ± 2.7e-05 | 0.000473 ± 5.8e-05 | 0.000653 ± 7.7e-05
A15U U47C | 0.00038 ± 5e-05 | 862 ± 310 | – | 5.24e-05 ± 1.3e-05 | 0.00024 ± 7.3e-05 | 0.00036 ± 5e-05 | 0.000325 ± 3.4e-05
C16U G32C A52G | 4.34e-05 ± 1.5e-06 | 3600 ± 420 | – | – | – | – | 3.19e-05 ± 1.3e-05
A15U A42U | 4.62e-05 ± 4.1e-06 | 1830 ± 680 | – | – | – | – | 3.96e-05 ± 1e-05
A15U A42G | 0.00684 ± 0.0019 | 1500 ± 570 | 0.000222 ± 3.2e-05 | 0.000542 ± 0.00018 | 0.00165 ± 0.00033 | 0.0039 ± 0.0016 | 0.00687 ± 0.0013
